Measurements from publication PMC2784926.

Molecular target: β-catenin (UniProt P35222)
Assay: GST pull-down after in vitro kinase reaction
Details: reference: WT His-α-catenin with CK2α; sites S641

α-catenin (from UniProt P35221) His-α-catenin S641A with CK2α
binding against the reference: stronger
